The domain aggregation screens of Martell et al. (2025)

Experiment: soluble fraction after stress (log2 fold change); higher = more stays soluble; pooled small domains, quantitative proteomics
Settings: stress: 75 degC
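Note: 20 min heating vs room temperature control held 20 min.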

Row | Sequence | soluble fraction (log2)
1 | HMIQHFARKRRQLELAVQRLSGRMAETNGQVTADMQRLIQQVKALVAELSHVFSRAYLRRVLGGVALVIGS | -0.597
2 | HMIQLTDAEFNELVTYIKKNYGINLIKKRLLIEARMYSVLAKHGFTSFTEYINLIKRDPAELNTMLNKLTT | -3.26
3 | HMIQMRVKVPKNIAGGSLMGAHHFVKSALARTNPGGSTSNYKIQATDGTPLTLGDLTARQYDEVLIISG | -0.668
4 | HMIQTKKVTFTVEPTVNFEKINISGIEFKINSGSSITAIYEKNSHNFDEVLDFLKQKGVKILDIVTED | -0.251
5 | HMIRILIVDDSAFMRKLLSDVFEEDKNFVVVDTARNGQDAVEKVKRLKPDLVTMDVEMPVMDGLTAVEIIM | -0.453
6 | HMIRSNLAEQAYAQLKALIHDFQLLPGDRFSENEMGTRLGVSRTPVREALFRLRNEGFLEVESKAGWYVK | -3.04
7 | HMISAADLQTYLKGMDYPAGREDLVAHAQRNNAPESVITILQGFSDRTYRSAAEVSEEFGRE | 0.495
8 | HMISADSSKVDTLVQVYSNMKPIQAAQVFEKMDEDLVIEILSRMKKKNAADILNLIKTEKAQVFAEKYA | -0.109
9 | HMISAEPVGEDLFKVAFPFLGGSTVFEKTIEQFIEEHPSKRIDHIYTVPNPLRLKKADALIFYIITEEK | -1.07
10 | HMISASDLQTYLKGMDYPARKEDLIVHAQRNNAPESVIAAIRQFSDRTYQSAADVSEEFGKI | 0.602
11 | HMISDEELLVSTKKEIMSLATVLTKTDKKDDAIAIMKEYDPAANPNRIKDVNKAKELLERLQKLG | -0.225
12 | HMISDISEIEAIIVEVLKVFPNQLQEYLDGKEKILSFFVGQVMQRTKGRANPSLVNEILKEKIKN | -1.22
13 | HMISEAEGTILQLLKEADGTLPFTYKSDADEIKKVFGMSKKNFKRTLTELIEAKKIQLLDDAIVL | -0.632
14 | HMISEKEIKIIEDILARWNGKLTWDDFTSKVAKKLNLPSLSKFTLMGYPEIKQAFLTRKQTLK | -0.53
15 | HMISENFVEAKILLTEDNRPKSLEILKDIIRQHDKVYSPLSLFLILDEDLEENKEIILEYFDLVLS | -0.327
16 | HMISESLLDEIPGLGETRRNSLLREFGSVAMIRKASAEEIASRVRGIGAEFAAAIHDFLQTH | -0.446
17 | HMISFHEYLTQLLDEKGLTKAQVITDSNIQKNYGYQIFDGSKTPSRDKVIAIALAMQLTLDEANRLLHLSN | -1.75
18 | HMISFTDLEHIEKMIENVLYTKTPLNLPPTDAKIRKIEHQIARRYGLNSESFGDEPRRFVVVYPNEERE | -0.907
19 | HMISKAQLFSEEELTELYRATGYQLENDPEIHREQFEALQAVRAKIEYAVPDVQEKLEQEQNLGQQ | 0.512
20 | HMISKRFQVDEENSNNRVDIFLANNLDSISRGIVQQLILDGKVLVNGETVKRNHLLKTNDEVDISFEI | 0.349
21 | HMISRDPYDAGAIKRHFSASGLFSSKELAHYLGKSVSTAKNVLSDLQQQGIVEMVGQGPATKYRFI | 0.772
22 | HMISSRDAAVIGLVENIQRAQLNAIDESSGFKHLMETYNLESKEIALLVGKSRSYVSNSLRLSK | 0.124
23 | HMISTVFYVDVKGEVHHPGVYQMKAENRVKDLIEAAGGFTPLADDQKLNLAQLLEDQMVIVVPKKGEEV | 0.243
24 | HMISVTNRTGTGLNDVKVEVFPVGRQMVFSATVFRVESEATNRFSLGELRGSDGTPFNQRVHRPESI | -0.184
25 | HMITAEQENILFEKASDDISNNIINKGIWTKAYSQAGGDESKQKAIYIDLLVNYYKMLIKAGEEFEDI | -2.42
26 | HMITALLPGTVLIREFDGRDYHVTVATDGRFEMDGHKYPSLSAVAKHITGTQWSGPAFFGLN | -1.06

Row | Sequence | soluble fraction (log2)
27 | HMITASNYFIEVERIGIETLPETLKKGHDLVVKSTSNGTNWANYQTSEGIKKVIDLYFQKLNEYANTV | -1.83
28 | HMITDSSEIEAMVDALVKENPGQAEQYKDGNMKVAGWFIGQIMKVSKGKANPQLVGDLLKKKLG | 0.197
29 | HMITERVPVPDLTGMPLMEAIKTLNSSKLQYQVVGSVIEGDENRIIDQTPKPDIMVSEKSIVLLYLETYRG | -2.6
30 | HMITIDADTGKRVYTRKEVADLVGASTQSIRLWEDAGAIPASVRDEGGYRYWYEEDLEAIKAYAS | -0.203
31 | HMITKAIELAEEAEKETVWLGVWEHNHPAQKFYQSLGFVKTDEHDFYMGNERHTDYTMTKQLK | -0.344
32 | HMITLKKRRQEAILEIIEKYDLSTQDELLQKLKDSGFDATQATVSRDIKELRLVKTMGANGQYKYAVT | -0.881
33 | HMITMADKIDTALSEMAANNEKINVSQVAKRLGISNSAIYKFNPEKIPDIQTAQKRQKHKAEAIAVGTEN | -0.0393
34 | HMITMWYYKKDGNIIGPASARKIASMRELGIITDSTPVSRKRNAKNWETFGGLSEKINLESSQWD | -1.98
35 | HMITNEDINIKKLLVVMKDTPLSANEIMDKLNIKSKETLRNMYLDPAIKKGLINLTIPDKPTSKNQKYYK | -0.426
36 | HMITNESEIERIVEAIISKNPESIAQYRSGITKVLGFLVGQVMKETKGRANPALVNRIIISKME | -0.899
37 | HMITSELALVKLVVKGANRVEALRVAETFRARALDVTLSSFVFELTGKPSKLDAFIGLMRSLGDTEILKR | -4.17
38 | HMIVEIVPSALHGERVDRIVAFILDVSRSVASGLVERGAVHVDGSVETSGKVRLVEGQEVSVDPSQVPG | -0.69
39 | HMIVNEQEQTFIKAMRDDDFNTILELKMKGYQPSDNVLKSLQPDISSTTFIAAAKIFQMERMLK | -0.502
40 | HMIVSVPNVRGMGESKAAAALQNRGLLVSIDYESSTSASQGEVIRQSISPGTEVTKGSSITIIIAVSPN | -1.56
41 | HMIVVMQPGATKEQVQAVIDRVAEFGFQTKLAPGAERMVIGVVGSPLPDTLKEALERLPGVEEVIRVSKR | -0.379
42 | HMIVVTSPQVTDERIAEIVAFIEKHGVQAHVSRGTDRTVIGIIGKADPVLAEHLRSMQGVENVIKIS | -0.167
43 | HMIYKLTLLRDLPEAKAGFDFYLRGGLASHDGEEWFSWVTREPIYARLYWLYVEKREEWVLVEETDI | -4.51
44 | HMIYMIDPNDEIAVKLDEIYQRYLNRTIDPEGLIFFYNQIRNAQMGYSDVEKRILESPEYVSIPK | -0.53
45 | HMIYQNVINLLKNRLNSSIYNIGDLLPSEKELAEHYDVSRNTLRKALKTLEEEGMIERRHGSGTYLRNK | -1.67
46 | HMIYWGTMVDKIYEVLSLAGKPLSLMEIYQQVKVFFPNSTKSSIEASMRLDARHRFKYDVEGHVYSLVD | -3.44
47 | HMIYYTEEELVKRYIDFSNYLGKKEGASDVDFKKYAVEFGIPSRDHYNRKFITLFNLKIKAGYKPIRH | -0.835
48 | HMKAAQDQDQAATLLQKATGVNQDQAKLAATVLFKEQSVTPIRQAIASGDYYQAYQDAKSLQQQ | 0.221
49 | HMKADIEQVQRAFDTLDPKNQQLVLDAMKAATAELDPNSDQFKTNTEFINDNQKALDRHAKAS | 0.122
50 | HMKAGAVFNEGDVLYPKIGGLKLMAAAGEGGKVVATLAKTDEMIYMGEEQSGFVKVESGSGSGWVKKILVA | 0.438
51 | HMKAGEDAVQKAVLEAVAESAAAVADYKAGSERALNFIVGKVMKKTRGKASAAEVHRLVREEVDR | 0.0653
52 | HMKAILHQESRSGFANATVIGGLDKFLDTNWNQLSKYIKKIETPYSDRSLEDRKIWISTILGILSTEI | 0.279

Row | Sequence | soluble fraction (log2)
53 | HMKALHEEIAEKIQEQILRSNLAPGDKLDTELELAARYGVSRSTIRQALIQLESAGLIDRLHGRGTFVAD | 0.59
54 | HMKAPDSQYKPLTDFQTDASFQKLDAYLRNRYPAMLANAVVYDVLRTPDAISYRVNYQVDNKMITINAAVT | -1.66
55 | HMKAPLTFVIEGKEYEAFDQYKTGAELKQLAGIPLDTELFLSISKPYQDELIENEKQVNLARPETEYFFVK | 0.522
56 | HMKAQTVPQFVGMTMTEAEEKASELGITLIEGAVVDSVEPKDTILTQDVDEGTEITGKMEIMVTISS | 0.324
57 | HMKARLRRVFQIYYGDAYSIMKALKETFPLQTIVHEPRTNSIVVDTPDEETATKIGDVVSAL | -0.771
58 | HMKDANIQIGKRLREARLNMNLEKSEIADVLGVTVEHYRKLEAGVMGISVDKVLTLYHKYGIDPTYLITG | -3.36
59 | HMKDEGSLKVIGQMVVIGIPQSEAKRFANTYTVAQIRAALQYTQKRSEDKNASKLENVAAYFRQALVRNWG | -2.57
60 | HMKDHKSKWMAKTELDSIAKNLSKKHAISLDYEEDGTRFYAGGQSPLGIGRLFTVFVAPRNGHWSDQLR | 0.194
61 | HMKDLIGEAKAKELALGHAKLSASDVTFIHVELDWENGRRVYDVEFYSGAKEYDYEIDAKTGEIVSFDY | -1.23
62 | HMKDLQHLVGEKGTTVTPLRPSGIALIKGSRYDVVSEGSFIQQGVAVEVIKVEGRRVVVSPLQED | -0.722
63 | HMKDLSMPDVMGSSLNDAKKALTELGIMDITVRYVESGSSEGSIVGMEPPAGSKFAADGKVVLQVSSGS | 0.542
64 | HMKDMKISTQNILKELATNYPDQTAFRKNVIESTAKSMGYTGKDFYPMLTAETRVKIGTYDLSALLQTV | -0.38
65 | HMKDPSFELMSVAESFYRSGNVDHAVYALEKYLEVYADGDYTDRAHDLLSQARKGLTYPHGYPPLQI | -1.26
66 | HMKDRDISNAVLNILSKDSDHNYNYKQIASVLGVKDPFVRKRIVSVLAQLTKNGQLEEISRGKYQIKN | -0.478
67 | HMKDRNISSSVLEILSKDPDHTYNYKQIAALLGVKDAFIRKRIVTLLAQLAKDGHLDEISRGKYQIK | -1.22
68 | HMKDVVAPMSGRVVRLMVAAGDEVVKRQALVVVEAMKMENVLTAPKEGRIKKVPVREGMTVEVGQTLVSFE | -1.88
69 | HMKDYKSALQELIQSGDKRVISYHTLKETGPSHNREFEAAVKLDGNIILGVGKGKTKKEAEQNAAHEALKK | -0.0221
70 | HMKDYKSSLQERVQAVGGGQLIYRVNREEGPDHSKTFYMDLFLGDRLIGTGSGRNKKQAEQQAAKEAIERG | -0.283
71 | HMKDYKTIFQELIQKKHKTSPIYKSYEYNDMFKAEVYVNDKSFADGIGKSKKEAETDAAKKALEKIEMA | -0.0428
72 | HMKDYQGEISVVASGERIDVYLFNYFNLFSRTKIKNHIKNGNILVNENIISPSYILKQNDKIAFNLGAPY | -2.27
73 | HMKDYQGNILIQSEGDRIDKFLFKYFNSFSRTKIKNHIINGNILVNDKNTIPAYVLKINDKISYDLSTSVK | -1.9
74 | HMKEAITVIGGKNNITFDASAQAEIGIYSMDGVQIQKKTISDNERIDLPAGMYVVTVKTGQANVSKVVVV | -0.553
75 | HMKEDSTIIERIISNLSSASLKTQKAFEYKLTDLMFRFSEGEYEWSSAMEVIREELLPFLNK | 0.0891
76 | HMKEETEMVTIPDVTGKPLTEAANLLREAKLDYLAESTGTSVTKQMPLPGAEVMVNTTVLLYTG | 0.157
